We go through one substance from PMC3536711, “Directed Evolution of a Model Primordial Enzyme Provides Insights into the Development of the Genetic Code” (PLoS Genetics, 2013).

This assay addresses 9-CM, simplified chorismate mutase composed of only nine different amino acids. In words: SEC; size-exclusion column after Ni-NTA affinity purification; dimer peak (major peak around 170 mL) isolated for each sample; small fraction of aggregates in the mutant proteins.

In general, stoichiometry N refers to the number of molecules, sites or subunits per partner or assembly.

Consider “9-CM, simplified chorismate mutase composed of only nine different amino acids (enzyme)”, for which the stoichiometry N was found to be 2.
